# Laboratory results taken from the nanobody polyreactivity screen of Harvey et al. (2022).
# Assay: yeast display, Sf9 membrane polyspecificity reagent, FACS + sequencing; frameworks hold sequencing errors
# Summary of the method: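 Nanobodies came from a synthetic yeast display library in Saccharomyces cerevisiae BJ5465, induced with galactose for 36–48 hours and stained for 1 hour at 4 °C with 10% biotinylated, detergent-solubilized Sf9 membrane reagent. Cells were enriched on streptavidin microbeads and then FACS-sorted, with low and high (top ~1%) gates set on anti-HA fluorescence for expression and streptavidin fluorescence for reagent binding. Each polyreactivity label reflects the gate a clone came from. Genes were amplified by colony PCR, sequenced by MiSeq 2 × 250 and filtered by CDR length.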
row,Sequence,polyreactivity (PSR sort gate)
1,QDQLVESGGGLVQAGGSLRLSCAASGSTFSYNMGWYRQAPGKERELVARITRGGGSTYYADSVKGRFTISRDNAKNTVYLQMNSLKPEDTAVYYCAADRYFRYYYWGQGTQVTVSS,high polyreactivity
2,QVQLVESGGGLVQAGGSLRLSCAASGSTFYYNAMGWYRQAPGKERELVARISRSGGSTYADSVKGRFTISRDNAKNTVYLQMNSLKPEDTAVYYCNADAYGTPEFTSYAVRYDYWGQGTQVNVSS,low polyreactivity
3,QVQLVESGGGLVQAGGSLRISCAASGCTFSFNAMGWYRPAPGKERELVAAITTADSTYYADSVKGRFTISRDNAKNTGYFQMNSLKPEDTAVYYCAADAYWEYDYWGQGTQVTVSS,low polyreactivity
4,QVQLVESGGGLVQAGGSLRLSCAASGSIFYANAMGWYRQAPGKERELVAAISRSGGRTYYADSVKGRFTISRDNAKNTVYLQMNSLKPEDTAVYYCNAVYVSYTYQQTRPRYYYWGQGTQVTVSS,high polyreactivity
5,QVQLVESGGGLVHAGGSLRLSCAASGSIFYEYAMGWYRQAPGKERELVASINRGGGSTYYADSVKGRFTISRDNAKNTVYLQMNSLKPEDTAVYYCAAQWKYRQSYLDYYWGQGTQVNVSS,low polyreactivity
6,QVQLVESGGGLVQAGGSLRLSCAASGRIFDYNAMGWYRQAPVKERELVATITTGGSTYYADSVKGRFTISRDNAKNTVYLQMYSLKPEDTAVYYCAARRWYFHYFAYGYWGQGTQVTVSS,low polyreactivity
7,QVQLVESGGGLVQAGGSLRLSCAASGSTFLGYVMGWSRQAPGKERELVAAITRSGGRTYYADSVKGRFTISRDNAKNTVYLQMTSLNPEDTAVYYCAALRGPSFHGYGYWGQGTQVTVSS,high polyreactivity
8,QVQLVESGGGLVQAGGSLRLTCAASGRTFYIYTMGWYRQAPGKERELVAAISSSGDSTYYADSVKGRFTISRDNAKYTVYLQMISLKPEDTAVYYCAAEYAYHHVGFGYWGQGTQVTVSS,low polyreactivity
9,QVQLVESGGGLVQAGGSLRLSCAASGRIFWYYAMGWYRQAPGKEREFVAAIDWSGGRTYYADSVKGRFTISRDNAKNTVYLQMNSLKPEDTAVYYCAARDRAGRGKSYKPYYYWGQGTQVTVSS,high polyreactivity
10,QVQLVESGGGLVQAGGRLRLSCTASGIIFGTYAMGWYRQAPGKERELVAAISSSGVSTYYADSVKGRFTISRDNAKNTVYLQMNSLKPEDTAVYYCAAPLHYGYYYWGQGTQVTVSS,high polyreactivity
11,QVQLVESGGGLVQAGGSLRLSCAASGRTFDLYAMGWYRQAPGKERELVARITNIDDSTYYADSVKGRFTISRDYAKNTVYLQMNSLKPEDTAVYYCNAASYSRGPARYDYWGQGTQVTVSS,high polyreactivity
12,QVQLEESGGGLVQAGGSLRLSCAASGRIFDVNAMGWYRQAPGKERELVPRITSDGGTYYADSVKGRFTISRDNAKNTVYLQMNSLKPEDTAVYYCNAPYWFSPGYGGFEFGYDYWGQGTQVTVSS,low polyreactivity
13,QVQLVESGEGLVQAGGSLRLICAASGRNFYSNAMVWYRQAPGKERELVAAMSYSGGSTYYADSVKGRFTISRDNAKNTVYLQMNSLKPEDTAVYYCAADTTYWPYWGTYVVYDYWGQGTQVTVSS,low polyreactivity
14,QVQLVESGGGLVQAGGSLRLSCAASGLIFRTYAMGWNRQAPGKERELVAAIRGGGSTNYADSVNGRFTISRDNAKNTVYLQMNSLKPEDTAVYYCAALVYAVTRRRVQGYGYDYWGQGTQVTVSS,low polyreactivity
15,QVQLVESGGGLVQAGGSLRLSCAASGFIFRGYAMGWYRQAPGKERELVAAISRRGGSTYYADSVKGRFTISRHNAKNTVYLLMNSLKPEDTAVYYCNADTTQQGNVRVGYWGQGTQVTVSS,high polyreactivity
16,QVQLVESGGGLVQEGGSLRLICAASGRTLNSYDMGWYRQEPGKERELVAAISWSGTNTYYSDSVKGRFTISRDNAKNTVYLQMNCLKPEDTAVYYCNAVTKATRYEYWGQGTQVTVSS,high polyreactivity
17,QVQLVESGGGLVQAGGSLRLSCAASGITFGYYAMGWYRQAPGKERELVAAISSSGGSTYYADSVKGRFTISRDNAKNTVYLQMNSLKPEDTAVYFCAARYRKYSWYDYWGQGTQVTVSS,high polyreactivity
18,QVQLVESGGGLVQAGGSLRLSCAASGSIFYGYAMGWYRQAPGKERELVAGISNGGSTNYADSVKGRFTISRDNAKNTVYLQMNSLKPEDTAVYYCNRDGTYVYHGGEYCGQGTQVTVSS,low polyreactivity
19,QVQLVDSGGGLVQAGGSLRLSCAASGFIFVKYAMGWYRQAPGKERELVAAITTSGTGTFYADSVKGRFTISRDNAKNTVYLQMNSLKPEDTAVYYCNALGHPGDDWGQGTQVTVSS,low polyreactivity
20,QVQLVESGGGLVQAGGSLRLSCAASGITFRYNAMGWYRQAPGKERELVAAITFSGGSTYYADSVKGRFTISRDNAKNTVNLQMNSLKPEDTAVYYCAKLGSTSSRGNYDYWGQGTQVTVSS,low polyreactivity
21,QVQLVESGGGLVQAGGSLRLSCASSGSTFRKNTMGWYIPAPGKEREFVAAISRSGGSTYYADSVKGRFTISRDNAKNTVYLQMNSLKPEDTAVYYCAASYYPHQYSYELGDYWGQGTQVTVSS,low polyreactivity

row,Sequence,polyreactivity (PSR sort gate)
1,QVQLVESGGGLVQAGGSLRLSCAASGRTFSYYAMGWYRQAPGKERELVASISGGGRTNYADSVKGRFTISRDNAKITVYLQMNSVKPEDTAVYYCAASYQITRQYKRGYWGQGTQVTVSS,high polyreactivity
2,QVQLVESGGGLVQAGGSLRLSCAASGSIFAANAMGWYRQAPGKERELVADITRGDGTNYADSVKGRFTISRDNAKNTVYLQMNSLKPEDTAVYYCAAEPSQRYPWSGYDYWGQGTQVTVSS,low polyreactivity
3,QVQLVESGGGLVQAGGSLRLSCAASGRIFHFNAMGWYRQAPGKERELVATITKRGGRTYYADSVKGRFTISRDNAKNTVYLQMNSLKPEDTAVYYCNADQSRYSAVSGYDYWGQGTQVTVSS,high polyreactivity
4,QVQLVESGGGLVQAGGSLRLSCAASGRIFGSYVMGWYRQAPGKVRELVAAISRRGGSTYYADSVKGRFTISRDNAKNTVYLQMNSLKPEDTAVYYCAAEFSPSSNPYDYWGQGTQVTVSS,high polyreactivity
5,QVQLVESGGGLVQAGGSLRLSCAASGRTFRWYAMGWDRQAPGKERELVAAISQSGGSTYYADSVKGRFTISRDNAKNTVYLQMNSLKPEDTAVYYCNAYPPYGGYAYGRGDYWGQGTQVTVSS,high polyreactivity
6,QVQLVESGGGLVQAGGSLRLSCAASGSTFTPNVMGWSRQAPGKERELVAAINSSGGSTFYADSVKGRFTISRDNAKNTVYLQMNSLKPEDTAVYYCAASWHTPTVYDEYYYWGQGTQVTVSS,low polyreactivity
7,QVQLVESGGGLVQAGGSLRLSCAASGFTFRRNAMGWYRQAPGKERELVAVITSSARTNYADSVKGRFTISRDNAKNTVYLQMNSLKPEDTAVYYCNAYRYRQSSSDKYGYWGQGTQVTVSS,high polyreactivity
8,QVQLVDSGGGLVQAVGSLRLSCAASGRTLGAYAMGWYRQAPGKEREFVARITYGGRTFYADSVKGRFTISRDNAKNTVYLQMNSLKPEDTAVYYCATKLPYRWYDYWGQGTQVTVSS,high polyreactivity
9,QVQLVESGGGLVQAGGSLRLSCAASGRIFRHNAMGWYRQAPGKESELVAAISGGGTTYYADSVKGRFTISRDNAKNTVYLQMNSLKPEDTAVYYCAARRRGSVGVGYAYPYNYWGQGTQVTVSS,high polyreactivity
10,QVQLVESGGGLVQAGGSLRLSCAASGRTFYGNAMGWYRQAPGKERELVASITRRGGITYYADSVKGRFTISRDNAKNTVYLQMNSLKPEDTAVYYCAKAQLGPWSFEYWGQGTQVTVSS,high polyreactivity
11,QVQLVESGGGLVQAGGSLRLSCAASGRIFGDNAMGWYRQAPGKERELVATISRGGTTNYADSVKGRFTISRDNAKNTVYLQMNSLKPEDTAVYYCNARSGGHGYSRYQTYLRYDYWGQGTQVTVSS,low polyreactivity
12,QVQLVESGGGLVQAGGSLRLSCAASGITFNVYAMAWYRQAPGKERELVATITGSGGSTYYADSVKGRFTISRDNAKNTVYLQMNSQKPEDTAVYYCNAYYYFWGQGSQVTVSS,low polyreactivity
13,QVQLVESGGGLVQAGGSLRLSCAASGSIFGYYAMGWYRQAPGKERELVAAITWSGDSTYYADSVKGRFTISRDNAKNTVYLQMNSLKPEDTAVYYCAARQFVHTRYFSFGYWGQGTQVTVSS,low polyreactivity
14,QVQLVESGGGLVQAGGSLRLSCAASGRILGRNAMGRYRQAPGKEREFVAGISYSGTSTYYADSVKGRFTISRDNAKNTVYLQMNSLKPEDTAVYYCAARSTWFQIRYGYWGQGTQVTVSS,high polyreactivity
15,QVQLVESGGGLDQAGGSLRLSCAASGSTVVRYAMGWYRQAPGKEREFVATISRRGGSTYYADSVKGRFTISRDNAKNTVYLQMNSLKPEDTAVYYCAKQGEAALPYIYDHWGQGTQVTVSS,low polyreactivity
16,QVQLVDSGGAIVQAGGSLRLSCAASGRTYHRNSKGWYRQAPGKERELVAAITGDGRTNYADSVKGRFTISRDNAKNTVFLPINSLKPEDTAVYYCAATFGFFYYHYDYWGQGTQVTVSS,low polyreactivity
17,QVQLVESGGGLVQAGGSLRLSCAASGFTFRAYAMGWYRQAPGKERELVATITRSGGSTFYADSVKGRFTISRDNAKNTVYLQMNSLKPEDTAVYYCAAVYRFPCRYAWYKYDDWGQGTQVTVSS,high polyreactivity
18,QFQHVESGAGLVHAGGCLRLSCSASGRTFFYNAMGWYRQPPGKEREFVASITWSGSTYYADSVKGRFTISRDNAKNTVYLLMNRLKQEDTAVYYCAADRQGGLVIDSGGYDYWGQGTQVTVSS,low polyreactivity
19,QVQLVESGGGLVQAGGSLRLTCAASGLTFPKYAMGWYRQAPGKERELVAAITQRGGSTYYADSVKGRFTISRDNAKNTVYLQMNSLKPEDTAVYYCNARRRDYNNRREFDYWGQGTQVTVSS,high polyreactivity
20,QVQLVESGGGLVQAGGSLRLSCAASGRILGRYAMGWYRQAPGKEREVVATITSGDDTNYADSVKGRFTISRDHAKNTVYLQMNSLKPEDTAVGFWGQGSQVTVSS,low polyreactivity
